Values quoted from earlier work as cited in patent US9408889B2, “Fusion peptide designed to reduce plaque bacteria and yeast in the oral cavity” (RUTGERS, THE STATE UNIVERSITY OF NEW JERSEY, priority 2011, dated 2016).

Tested on: Streptococcus mutans
Details: full length Lf variant expressed in an insect vector

B1: arginine variant: full length lactoferrin (Lf) variant with arginine at position 29, the more common variant (protein, UniProt P02788 1-710, looked up)
chain: MKLVFLVLLFLGALGLCLAGRRRSVQWCAVSQPEATKCFQWQRNMRKVRGPPVSCIKRDSPIQCIQAIAENRADAVTLDGGFIYEAGLAPYKLRPVAAEVYGTERQPRTHYYAVAVVKKGGSFQLNELQGLKSCHTGLRRTAGWNVPIGTLRPFLNWTGPPEPIEAAVARFFSASCVPGADKGQFPNLCRLCAGTGENKCAFSSQEPYFSYSGAFKCLRDGAGDVAFIRESTVFEDLSDEAERDEYELLCPDNTRKPVDKFKDCHLARVPSHAVVARSVNGKEDAIWNLLRQAQEKFGKDKSPKFQLFGSPSGQKDLLFKDSAIGFSRVPPRIDSGLYLGSGYFTAIQNLRKSEEEVAARRARVVWCAVGEQELRKCNQWSGLSEGSVTCSSASTTEDCIALVLKGEADAMSLDGGYVYTAGKCGLVPVLAENYKSQQSSDPDPNCVDRPVEGYLAVAVVRRSDTSLTWNSVKGKKSCHTAVDRTAGWNIPMGLLFNQTGSCKFDEYFSQSCAPGSDPRSNLCALCIGDEQGENKCVPNSNERYYGYTGAFRCLAENAGDVAFVKDVTVLQNTDGNNNEAWAKDLKLADFALLCLDGKRKPVTEARSCHLAMAPNHAVVSRMDKVERLKQVLLHQQAKFGRNGSDCPDKFCLFQSETKNLLFNDNTECLARLHGKTTYEKYLGPQYVAGITNLKKCSTSPLLEACEFLRK
modifications: full-length
notes: full length lactoferrin (Lf) variant with arginine at position 29, the more common variant
In the case of B1, the “effect on survival of S. mutans” value is given as “little to no effect”.
